T1: PUF4 RNA-binding domain (Saccharomyces cerevisiae, UniProt P25339 537-888)
T1 sequence: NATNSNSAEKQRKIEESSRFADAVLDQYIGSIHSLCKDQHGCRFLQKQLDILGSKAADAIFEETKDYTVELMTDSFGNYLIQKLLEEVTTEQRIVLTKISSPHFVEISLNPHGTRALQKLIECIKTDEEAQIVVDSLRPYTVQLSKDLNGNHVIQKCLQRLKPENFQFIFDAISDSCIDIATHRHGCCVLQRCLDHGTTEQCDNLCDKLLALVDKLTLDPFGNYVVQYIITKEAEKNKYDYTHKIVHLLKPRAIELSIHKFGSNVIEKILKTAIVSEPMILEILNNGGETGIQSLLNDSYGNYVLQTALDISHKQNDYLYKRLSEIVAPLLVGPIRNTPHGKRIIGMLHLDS


target: T1, PUF4 RNA-binding domain; assay: Mg; RNA-MaP; 20 mM Na-HEPES pH 7.4, 30 mM KOAc, 0.75 mM MgCl2, 0.1% Tween-20, 5% glycerol, 0.1 mg/mL BSA, 2 mM DTT; 25 C; 0.0125-409.6 nM protein; conditions: tags: N-His6-TEV cleaved; C-SNAP kept, Cy3B-labelled; label: tethered on chip by stalled RNA polymerase

| Binder | Kd [nM] |
| --- | --- |
| UCUCUUUCUACACUAUUAAUUCUCUU (ssRNA) [Id_iii_S1_P4E.7_K4.3_C4.3_H4.3_A4.1_F4.1_T4.2_[G10A]] | > 2300 |
| UCUCUUUCAUGUAUUUUAGUUCUCUU (ssRNA) [Id_iii_S1_P4E.8_K4.4_C4.3_[T-1A]_H4.1_A4.2_F4.1_T4.2] | 1.37 |
| UCUCUUUCUUAUAUUAUUAUCUCUCUU (ssRNA) [Id_iii_S1_P5E.6_K5.2_C5.3_H5.2_A5.1_F5.1_T5.2_[A12C]] | 471 |
| UCUCUUUCUUAUAUUAUUAUUUCUCUU (ssRNA) [Id_iii_S1_P5E.6_K5.2_C5.3_H5.2_A5.1_F5.1_T5.2_[A12T]] | 372 |
| UCUCUUUCAUGUAUUUAAGUUCUCUU (ssRNA) [Id_iii_S1_P4E.9_K4.5_C4.3_[T-1A]_H4.1_A4.2_F4.2_T4.2] | 648 |
| UCUCUUUCUACACUUAUUAUGUCUCUU (ssRNA) [Id_iii_S1_P5E.7_K5.3_C5.3_H5.3_A5.1_F5.1_T5.2_[A12G]] | > 2300 |
| UCUCUUUAUACACUAUUAGUUCUCUU (ssRNA) [Id_iii_S1_P4E.7_K4.3_C4.3_[C-2A]_H4.3_A4.1_F4.1_T4.2] | 39.2 |
| UCUCUUUCCUGUAAAUAUAUCUCUU (ssRNA) [Id_iii_S1_P3E.8_K3.4_C3.3_[T-1C]_H3.1_A3.2_F3.1_T3.2] | 11.1 |
| UCUCUUUUUUGUAUAUUAGUUCUCUU (ssRNA) [Id_iii_S1_P4E.5_K4.1_C4.3_[C-2T]_H4.1_A4.1_F4.1_T4.2] | 0.395 |
| UCUCUUUUUUAUAUAUUAGUUCUCUU (ssRNA) [Id_iii_S1_P4E.6_K4.2_C4.3_[C-2T]_H4.2_A4.1_F4.1_T4.2] | 11 |
| UCUCUUUCUUGUAUUAUUAUCUCUCUU (ssRNA) [Id_iii_S1_P5E.5_K5.1_C5.3_H5.1_A5.1_F5.1_T5.2_[A12C]] | 6 |
| UCUCUUUGUUGUAUAUUAGUUCUCUU (ssRNA) [Id_iii_S1_P4E.5_K4.1_C4.3_[C-2G]_H4.1_A4.1_F4.1_T4.2] | 0.332 |
| UCUCUUCCUUGUAAUAUUAUAUCUCUU (ssRNA) [Id_iii_S1_P5E.8_K5.4_C5.3_[T-3C]_H5.1_A5.2_F5.1_T5.2] | 8.43 |
| UCUCUUUCAUGUAAAUAUAUCUCUU (ssRNA) [Id_iii_S1_P3E.8_K3.4_C3.3_[T-1A]_H3.1_A3.2_F3.1_T3.2] | 19.7 |
| UCUCUUUUUACACUAUUAGUUCUCUU (ssRNA) [Id_iii_S1_P4E.7_K4.3_C4.3_[C-2T]_H4.3_A4.1_F4.1_T4.2] | 1680 |
| UCUCUUUUUUGUAUUUUAGUUCUCUU (ssRNA) [Id_iii_S1_P4E.8_K4.4_C4.3_[C-2T]_H4.1_A4.2_F4.1_T4.2] | 1.81 |
| UCUCUUUCUUGUAUUUUAAUUCUCUU (ssRNA) [Id_iii_S1_P4E.8_K4.4_C4.3_H4.1_A4.2_F4.1_T4.2_[G10A]] | 3.62 |
| UCUCUUUGUUGUAUUUUAGUUCUCUU (ssRNA) [Id_iii_S1_P4E.8_K4.4_C4.3_[C-2G]_H4.1_A4.2_F4.1_T4.2] | 2.23 |
| UCUCUUUCUUGUAAAUAUGUCUCUU (ssRNA) [Id_iii_S1_P3E.8_K3.4_C3.3_H3.1_A3.2_F3.1_T3.2_[A10G]] | 28.7 |
| UCUCUUUCUUGUAUUAUUAUGUCUCUU (ssRNA) [Id_iii_S1_P5E.5_K5.1_C5.3_H5.1_A5.1_F5.1_T5.2_[A12G]] | 8.55 |
| UCUCUUUCUACACUUAUUAUUUCUCUU (ssRNA) [Id_iii_S1_P5E.7_K5.3_C5.3_H5.3_A5.1_F5.1_T5.2_[A12T]] | > 2300 |

| Binder | Kd [nM] |
| --- | --- |
| UCUCUUUCUUGUAAAUAUCUCUCUU (ssRNA) [Id_iii_S1_P3E.8_K3.4_C3.3_H3.1_A3.2_F3.1_T3.2_[A10C]] | 27.6 |
| UCUCUUUGUCUAAUUAUCUCUU (ssRNA) [Ib_S1_P5E.1_K5.1_C5.1_H5.1_[A4C]_A5.1_[T6A]_F5.1_T5.1] | 115 |
| UCUCUUUAUACACUUAUUAUAUCUCUU (ssRNA) [Id_iii_S1_P5E.7_K5.3_C5.3_[C-2A]_H5.3_A5.1_F5.1_T5.2] | 720 |
| UCUCUUUGUACACUUAUUAUAUCUCUU (ssRNA) [Id_iii_S1_P5E.7_K5.3_C5.3_[C-2G]_H5.3_A5.1_F5.1_T5.2] | 3.9 |
| UCUCUUUCAUGUAUAUUAGUUCUCUU (ssRNA) [Id_iii_S1_P4E.5_K4.1_C4.3_[T-1A]_H4.1_A4.1_F4.1_T4.2] | 0.332 |
| UCUCUUUCGUGUAUUUAAGUUCUCUU (ssRNA) [Id_iii_S1_P4E.9_K4.5_C4.3_[T-1G]_H4.1_A4.2_F4.2_T4.2] | 694 |
| UCUCUUUCUACACUAUUACUUCUCUU (ssRNA) [Id_iii_S1_P4E.7_K4.3_C4.3_H4.3_A4.1_F4.1_T4.2_[G10C]] | 2190 |
| UCUCUUUCUUAUAUUAUUAAAUCUCUU (ssRNA) [Id_iii_S1_P5E.6_K5.2_C5.3_H5.2_A5.1_F5.1_T5.2_[T11A]] | 551 |
| UCUCUUUGUAUUUUUAUCUCUU (ssRNA) [Ia_S1_P5E.1_K5.1_C5.1_H5.1_A5.1_[A7T]_F5.1_T5.1] | 3.57 |
| UCUCUUUGUUUAAUUAUCUCUU (ssRNA) [Ib_S1_P5E.1_K5.1_C5.1_H5.1_[A4T]_A5.1_[T6A]_F5.1_T5.1] | 44.6 |
| UCUCUUUCGUGUAUAUUAGUUCUCUU (ssRNA) [Id_iii_S1_P4E.5_K4.1_C4.3_[T-1G]_H4.1_A4.1_F4.1_T4.2] | 0.46 |
| UCUCUUUGUUUGAUUAUCUCUU (ssRNA) [Ib_S1_P5E.1_K5.1_C5.1_H5.1_[A4T]_A5.1_[T6G]_F5.1_T5.1] | 122 |
| UCUCUUUUUUGUAUUUAAGUUCUCUU (ssRNA) [Id_iii_S1_P4E.9_K4.5_C4.3_[C-2T]_H4.1_A4.2_F4.2_T4.2] | 618 |
| UCUCUUUCUACACUAUUAUUUCUCUU (ssRNA) [Id_iii_S1_P4E.7_K4.3_C4.3_H4.3_A4.1_F4.1_T4.2_[G10T]] | > 2300 |
| UCUCUUUCUUAUAUUAUUACAUCUCUU (ssRNA) [Id_iii_S1_P5E.6_K5.2_C5.3_H5.2_A5.1_F5.1_T5.2_[T11C]] | 450 |
| UCUCUUUAUUGUAUAUUAGUUCUCUU (ssRNA) [Id_iii_S1_P4E.5_K4.1_C4.3_[C-2A]_H4.1_A4.1_F4.1_T4.2] | 0.362 |
| UCUCUUUCUUAUAUAUUAUUUCUCUU (ssRNA) [Id_iii_S1_P4E.6_K4.2_C4.3_H4.2_A4.1_F4.1_T4.2_[G10T]] | 15.1 |
| UCUCUUUGUUUCAUUAUCUCUU (ssRNA) [Ib_S1_P5E.1_K5.1_C5.1_H5.1_[A4T]_A5.1_[T6C]_F5.1_T5.1] | 24.4 |
| UCUCUUUCUUGUAUUUUAGCUCUCUU (ssRNA) [Id_iii_S1_P4E.8_K4.4_C4.3_H4.1_A4.2_F4.1_T4.2_[T11C]] | 1.07 |
| UCUCUUUCUACACUUAUUACAUCUCUU (ssRNA) [Id_iii_S1_P5E.7_K5.3_C5.3_H5.3_A5.1_F5.1_T5.2_[T11C]] | > 2300 |
| UCUCUUUCUUGUAUAUUAUUUCUCUU (ssRNA) [Id_iii_S1_P4E.5_K4.1_C4.3_H4.1_A4.1_F4.1_T4.2_[G10T]] | 0.649 |

| Binder | Kd [nM] |
| --- | --- |
| UCUCUUUCUUGUAUAUUACUUCUCUU (ssRNA) [Id_iii_S1_P4E.5_K4.1_C4.3_H4.1_A4.1_F4.1_T4.2_[G10C]] | 1.02 |
| UCUCUUUCUUGUAUUUAAAUUCUCUU (ssRNA) [Id_iii_S1_P4E.9_K4.5_C4.3_H4.1_A4.2_F4.2_T4.2_[G10A]] | 96.9 |
| UCUCUUUCUUGUAUUUAACUUCUCUU (ssRNA) [Id_iii_S1_P4E.9_K4.5_C4.3_H4.1_A4.2_F4.2_T4.2_[G10C]] | 70.1 |
| UCUCUUUCCUGUAUUUAAGUUCUCUU (ssRNA) [Id_iii_S1_P4E.9_K4.5_C4.3_[T-1C]_H4.1_A4.2_F4.2_T4.2] | 460 |
| UCUCUUUCCACACUUAUUAUAUCUCUU (ssRNA) [Id_iii_S1_P5E.7_K5.3_C5.3_[T-1C]_H5.3_A5.1_F5.1_T5.2] | > 2300 |
| UCUCUUCCUACACUUAUUAUAUCUCUU (ssRNA) [Id_iii_S1_P5E.7_K5.3_C5.3_[T-3C]_H5.3_A5.1_F5.1_T5.2] | > 2300 |
| UCUCUUUCUUGUAUUAUUAUUUCUCUU (ssRNA) [Id_iii_S1_P5E.5_K5.1_C5.3_H5.1_A5.1_F5.1_T5.2_[A12T]] | 4.34 |
| UCUCUUUCUUGUAAAUAAAUCUCUU (ssRNA) [Id_iii_S1_P3E.8_K3.4_C3.3_H3.1_A3.2_F3.1_T3.2_[T9A]] | 40.2 |
| UCUCUUUCGUGUAUUUUAGUUCUCUU (ssRNA) [Id_iii_S1_P4E.8_K4.4_C4.3_[T-1G]_H4.1_A4.2_F4.1_T4.2] | 1.23 |
| UCUCUUUCUUAUAUAUUAAUUCUCUU (ssRNA) [Id_iii_S1_P4E.6_K4.2_C4.3_H4.2_A4.1_F4.1_T4.2_[G10A]] | 18.1 |
| UCUCUUUGUGUUUUUAUCUCUU (ssRNA) [Ib_S1_P5E.1_K5.1_C5.1_H5.1_[A4G]_A5.1_[A7T]_F5.1_T5.1] | 26.8 |
| UCUCUUUGUUGUAUUUAAGUUCUCUU (ssRNA) [Id_iii_S1_P4E.9_K4.5_C4.3_[C-2G]_H4.1_A4.2_F4.2_T4.2] | 155 |
| UCUCUUUCUUGUAUUAUUAAAUCUCUU (ssRNA) [Id_iii_S1_P5E.5_K5.1_C5.3_H5.1_A5.1_F5.1_T5.2_[T11A]] | 11.1 |
| UCUCUUUCUUAUAUAUUACUUCUCUU (ssRNA) [Id_iii_S1_P4E.6_K4.2_C4.3_H4.2_A4.1_F4.1_T4.2_[G10C]] | 15.9 |
| UCUCUUUCUUGUAUUUUAUUUCUCUU (ssRNA) [Id_iii_S1_P4E.8_K4.4_C4.3_H4.1_A4.2_F4.1_T4.2_[G10T]] | 2.43 |
| UCUCUUUUUUGUAAAAAUAUCUCUU (ssRNA) [Id_iii_S1_P3E.9_K3.5_C3.3_[C-2T]_H3.1_A3.2_F3.2_T3.2] | 78.2 |
| UCUCUUUCUUAUAUAUUAGCUCUCUU (ssRNA) [Id_iii_S1_P4E.6_K4.2_C4.3_H4.2_A4.1_F4.1_T4.2_[T11C]] | 8.45 |
| UCUCUUCCUUGUAUAUUAGUUCUCUU (ssRNA) [Id_iii_S1_P4E.5_K4.1_C4.3_[T-3C]_H4.1_A4.1_F4.1_T4.2] | 0.347 |
| UCUCUUACUACACUUAUUAUAUCUCUU (ssRNA) [Id_iii_S1_P5E.7_K5.3_C5.3_[T-3A]_H5.3_A5.1_F5.1_T5.2] | 1570 |
| UCUCUUUGUACACUAUUAGUUCUCUU (ssRNA) [Id_iii_S1_P4E.7_K4.3_C4.3_[C-2G]_H4.3_A4.1_F4.1_T4.2] | 1.04 |
